{"source": "patent US20210324360", "proteins": {"B1": {"name": "Sentrin-specific protease 1 (SENP1) (protein)", "chain": "MDDIADRMRMDAGEVTLVNHNSVFKTHLLPQTGFPEDQLSLSDQQILSSRQGHLDRSFTCSTRSAAYNPSYYSDNPSSDSFLGSGDLRTFGQSANGQWRNSTPSSSSSLQKSRNSRSLYLETRKTSSGLSNSFAGKSNHHCHVSAYEKSFPIKPVPSPSWSGSCRRSLLSPKKTQRRHVSTAEETVQEEEREIYRQLLQMVTGKQFTIAKPTTHFPLHLSRCLSSSKNTLKDSLFKNGNSCASQIIGSDTSSSGSASILTNQEQLSHSVYSLSSYTPDVAFGSKDSGTLHHPHHHHSVPHQPDNLAASNTQSEGSDSVILLKVKDSQTPTPSSTFFQAELWIKELTSVYDSRARERLRQIEEQKALALQLQNQRLQEREHSVHDSVELHLRVPLEKEIPVTVVQETQKKGHKLTDSEDEFPEITEEMEKEIKNVFRNGNQDEVLSEAFRLTITRKDIQTLNHLNWLNDEIINFYMNMLMERSKEKGLPSVHAFNTFFFTKLKTAGYQAVKRWTKKVDVFSVDILLVPIHLGVHWCLAVVDFRKKNITYYDSMGGINNEACRILLQYLKQESIDKKRKEFDTNGWQLFSKKSQEIPQQMNGSDCGMFACKYADCITKDRPINFTQQHMPYFRKRMVWEILHRKLL"}}, "molecular_target": "SUMO-modified granzyme B", "sequence (chain, as listed by the source)": "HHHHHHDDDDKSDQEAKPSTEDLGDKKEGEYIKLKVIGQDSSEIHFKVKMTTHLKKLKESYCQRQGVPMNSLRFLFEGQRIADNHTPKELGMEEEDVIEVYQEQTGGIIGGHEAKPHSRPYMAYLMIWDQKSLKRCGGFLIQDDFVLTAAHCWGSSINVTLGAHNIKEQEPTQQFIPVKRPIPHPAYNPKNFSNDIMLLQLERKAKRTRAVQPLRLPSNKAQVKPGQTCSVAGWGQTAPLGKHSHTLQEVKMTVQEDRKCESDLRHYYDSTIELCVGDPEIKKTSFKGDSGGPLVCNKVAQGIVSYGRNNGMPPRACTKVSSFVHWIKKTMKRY"}
{"protein": "B1", "values": [{"measurement": "GrB activity (cleavage of Ac-IEPD-pNA, absorbance at 405 nm) and western blot after co-incubation with Mock-transfected or SENP1-overexpressing HEK lysate", "result": "SENP1 activates SUMO-GrB"}]}
